The values below come from paper PMC9938351, “Structural insights into ribonucleoprotein dissociation by nucleocapsid protein interacting with non-structural protein 3 in SARS-CoV-2”.

Data set [1] addresses T1, Nucleocapsid protein N (SARS-CoV-2, UniProt P0DTC9 1-419). Kind of data set: EMSA. Conditions: protein: recombinant; tags: N-terminal His6-TEV, tag removed; chain copies: 2; single strand. In general terms: Mobility shift assays separate free from complexed probe on a gel.
Data set [2] concerns the target T2, Nsp3 Ubl1 (SARS-CoV-2, UniProt P0DTD1 819-929). Kind of data set: EMSA; 3.8 uM Ubl1. Conditions: protein: recombinant; tags: His tag removed by thrombin; single strand.
The target of data set [3] is T1, Nucleocapsid protein N. Description: EMSA; 3.8 uM N, 2.5 uM DNA; displaced by Ubl1. Conditions: protein: recombinant; tags: N-terminal His6-TEV, tag removed; chain copies: 2; single strand.
Data set [4] deals with T2, Nsp3 Ubl1. Kind of data set: MST; Ubl1 1, 5, 10 uM. Conditions: protein: recombinant; tags: His tag removed by thrombin; label: 5'-Cy5; single strand.
Data set [5] has as its target T1, Nucleocapsid protein N. Description: MST; no Ubl1; 40 nM RNA. Conditions: protein: recombinant; tags: N-terminal His6-TEV, tag removed; chain copies: 2; label: 5'-Cy5; single strand.

B1: 17-mer TRS ssRNA (ssRNA)
RNA: UGUUCUCUAAACGAACU
Consider B1, for which the binding result was “binds” in data set [1] and “no binding” in data set [2].

B2: 17-mer TRS ssDNA (ssDNA)
DNA: TGTTCTCTAAACGAACT
B2: the binding result is “binds” in data set [3] and “no binding” in data set [2].

B3: 11-mer TRS ssRNA (ssRNA)
RNA: UCUAAACGAAC
The Kd is the concentration at which binding is half-saturated. Regarding B3, in data set [4], the binding result is reported as “no binding”. Further, in data set [5], the Kd was 5.1 ± 0.6 µM.
